Reference: US20240240209A1, “SYNTHESIS OF ENANTIOPURE CIS-A-IRONE FROM A RENEWABLE CARBON SOURCE” (Agency for Science, Technology and Research, priority 2021, published 2024)

B1: pMT12: pMT1 with Y200F S182E L273V L180A A202L Y65F C156D T91P N231D (protein)
chain: MPQEARTPQQQVTADEVGDWYDKFGEVYHLTLGESVHCGLWFPPDAPVPQDMELVTMSSQAQDRFTDYLIETLDPKAGQHLLDIGCGTGRPALKAARQRGIAVTGVAVSKEQIAAANRLAAGHGLTERLTFEVADAMRLPYEDESFDCAWAIESLDHMDRAKALGEAWRVLKPGGDLLVAEEVVTEELTEPETALFETLFALNVPPRLGEFFDIVSGAGFHTLSLKDLSADLAMTMNVFALGVYSRRAEFTERFGAEFVDGLLAGLGSAQETVIRKTRFFMATLRKPAV
modifications: Modified from pMT1
notes: pMT1 with Y200F S182E L273V L180A A202L Y65F C156D T91P N231D
B2: A95L (protein)
chain: MPQEARTPQQQVTADEVGDWYDKFGEVYHLTLGESVHCGLWFPPDAPVPQDMELVTMSSQAQDRFTDYLIETLDPKAGQHLLDIGCGTGRPALKLARQRGIAVTGVAVSKEQIAAANRLAAGHGLTERLTFEVADAMRLPYEDESFDCAWAIESLDHMDRAKALGEAWRVLKPGGDLLVAEEVVTEELTEPETALFETLFALNVPPRLGEFFDIVSGAGFHTLSLKDLSADLAMTMNVFALGVYSRRAEFTERFGAEFVDGLLAGLGSAQETVIRKTRFFMATLRKPAV
modifications: Modified from pMT1
B3: Q11P (protein)
chain: MPQEARTPQQPVTADEVGDWYDKFGEVYHLTLGESVHCGLWFPPDAPVPQDMELVTMSSQAQDRFTDYLIETLDPKAGQHLLDIGCGTGRPALKAARQRGIAVTGVAVSKEQIAAANRLAAGHGLTERLTFEVADAMRLPYEDESFDCAWAIESLDHMDRAKALGEAWRVLKPGGDLLVAEEVVTEELTEPETALFETLFALNVPPRLGEFFDIVSGAGFHTLSLKDLSADLAMTMNVFALGVYSRRAEFTERFGAEFVDGLLAGLGSAQETVIRKTRFFMATLRKPAV
modifications: Modified from pMT1
B4: Q11M (protein)
chain: MPQEARTPQQMVTADEVGDWYDKFGEVYHLTLGESVHCGLWFPPDAPVPQDMELVTMSSQAQDRFTDYLIETLDPKAGQHLLDIGCGTGRPALKAARQRGIAVTGVAVSKEQIAAANRLAAGHGLTERLTFEVADAMRLPYEDESFDCAWAIESLDHMDRAKALGEAWRVLKPGGDLLVAEEVVTEELTEPETALFETLFALNVPPRLGEFFDIVSGAGFHTLSLKDLSADLAMTMNVFALGVYSRRAEFTERFGAEFVDGLLAGLGSAQETVIRKTRFFMATLRKPAV
modifications: Modified from pMT1
B5: A107G (protein)
chain: MPQEARTPQQQVTADEVGDWYDKFGEVYHLTLGESVHCGLWFPPDAPVPQDMELVTMSSQAQDRFTDYLIETLDPKAGQHLLDIGCGTGRPALKAARQRGIAVTGVGVSKEQIAAANRLAAGHGLTERLTFEVADAMRLPYEDESFDCAWAIESLDHMDRAKALGEAWRVLKPGGDLLVAEEVVTEELTEPETALFETLFALNVPPRLGEFFDIVSGAGFHTLSLKDLSADLAMTMNVFALGVYSRRAEFTERFGAEFVDGLLAGLGSAQETVIRKTRFFMATLRKPAV
modifications: Modified from pMT1
B6: F212L: pMT12 with F212L (protein)
chain: MPQEARTPQQQVTADEVGDWYDKFGEVYHLTLGESVHCGLWFPPDAPVPQDMELVTMSSQAQDRFTDYLIETLDPKAGQHLLDIGCGTGRPALKAARQRGIAVTGVAVSKEQIAAANRLAAGHGLTERLTFEVADAMRLPYEDESFDCAWAIESLDHMDRAKALGEAWRVLKPGGDLLVAEEVVTEELTEPETALFETLFALNVPPRLGEFLDIVSGAGFHTLSLKDLSADLAMTMNVFALGVYSRRAEFTERFGAEFVDGLLAGLGSAQETVIRKTRFFMATLRKPAV
modifications: Modified from pMT1
B7: Q11L (protein)
chain: MPQEARTPQQLVTADEVGDWYDKFGEVYHLTLGESVHCGLWFPPDAPVPQDMELVTMSSQAQDRFTDYLIETLDPKAGQHLLDIGCGTGRPALKAARQRGIAVTGVAVSKEQIAAANRLAAGHGLTERLTFEVADAMRLPYEDESFDCAWAIESLDHMDRAKALGEAWRVLKPGGDLLVAEEVVTEELTEPETALFETLFALNVPPRLGEFFDIVSGAGFHTLSLKDLSADLAMTMNVFALGVYSRRAEFTERFGAEFVDGLLAGLGSAQETVIRKTRFFMATLRKPAV
modifications: Modified from pMT1
B8: T185V (protein)
chain: MPQEARTPQQQVTADEVGDWYDKFGEVYHLTLGESVHCGLWFPPDAPVPQDMELVTMSSQAQDRFTDYLIETLDPKAGQHLLDIGCGTGRPALKAARQRGIAVTGVAVSKEQIAAANRLAAGHGLTERLTFEVADAMRLPYEDESFDCAWAIESLDHMDRAKALGEAWRVLKPGGDLLVAEEVVVEELTEPETALFETLFALNVPPRLGEFFDIVSGAGFHTLSLKDLSADLAMTMNVFALGVYSRRAEFTERFGAEFVDGLLAGLGSAQETVIRKTRFFMATLRKPAV
modifications: Modified from pMT1
B9: A107S (protein)
chain: MPQEARTPQQQVTADEVGDWYDKFGEVYHLTLGESVHCGLWFPPDAPVPQDMELVTMSSQAQDRFTDYLIETLDPKAGQHLLDIGCGTGRPALKAARQRGIAVTGVSVSKEQIAAANRLAAGHGLTERLTFEVADAMRLPYEDESFDCAWAIESLDHMDRAKALGEAWRVLKPGGDLLVAEEVVTEELTEPETALFETLFALNVPPRLGEFFDIVSGAGFHTLSLKDLSADLAMTMNVFALGVYSRRAEFTERFGAEFVDGLLAGLGSAQETVIRKTRFFMATLRKPAV
modifications: Modified from pMT1
B10: S268H: pMT12 with S268H (protein)
chain: MPQEARTPQQQVTADEVGDWYDKFGEVYHLTLGESVHCGLWFPPDAPVPQDMELVTMSSQAQDRFTDYLIETLDPKAGQHLLDIGCGTGRPALKAARQRGIAVTGVAVSKEQIAAANRLAAGHGLTERLTFEVADAMRLPYEDESFDCAWAIESLDHMDRAKALGEAWRVLKPGGDLLVAEEVVTEELTEPETALFETLFALNVPPRLGEFFDIVSGAGFHTLSLKDLSADLAMTMNVFALGVYSRRAEFTERFGAEFVDGLLAGLGHAQETVIRKTRFFMATLRKPAV
modifications: Modified from pMT1
B11: A95C: pMT12 with A95C (protein)
chain: MPQEARTPQQQVTADEVGDWYDKFGEVYHLTLGESVHCGLWFPPDAPVPQDMELVTMSSQAQDRFTDYLIETLDPKAGQHLLDIGCGTGRPALKCARQRGIAVTGVAVSKEQIAAANRLAAGHGLTERLTFEVADAMRLPYEDESFDCAWAIESLDHMDRAKALGEAWRVLKPGGDLLVAEEVVTEELTEPETALFETLFALNVPPRLGEFFDIVSGAGFHTLSLKDLSADLAMTMNVFALGVYSRRAEFTERFGAEFVDGLLAGLGSAQETVIRKTRFFMATLRKPAV
modifications: Modified from pMT1
B12: T185L (protein)
chain: MPQEARTPQQQVTADEVGDWYDKFGEVYHLTLGESVHCGLWFPPDAPVPQDMELVTMSSQAQDRFTDYLIETLDPKAGQHLLDIGCGTGRPALKAARQRGIAVTGVAVSKEQIAAANRLAAGHGLTERLTFEVADAMRLPYEDESFDCAWAIESLDHMDRAKALGEAWRVLKPGGDLLVAEEVVLEELTEPETALFETLFALNVPPRLGEFFDIVSGAGFHTLSLKDLSADLAMTMNVFALGVYSRRAEFTERFGAEFVDGLLAGLGSAQETVIRKTRFFMATLRKPAV
modifications: Modified from pMT1
B13: Q11V (protein)
chain: MPQEARTPQQVVTADEVGDWYDKFGEVYHLTLGESVHCGLWFPPDAPVPQDMELVTMSSQAQDRFTDYLIETLDPKAGQHLLDIGCGTGRPALKAARQRGIAVTGVAVSKEQIAAANRLAAGHGLTERLTFEVADAMRLPYEDESFDCAWAIESLDHMDRAKALGEAWRVLKPGGDLLVAEEVVTEELTEPETALFETLFALNVPPRLGEFFDIVSGAGFHTLSLKDLSADLAMTMNVFALGVYSRRAEFTERFGAEFVDGLLAGLGSAQETVIRKTRFFMATLRKPAV
modifications: Modified from pMT1
B14: H123N (protein)
chain: MPQEARTPQQQVTADEVGDWYDKFGEVYHLTLGESVHCGLWFPPDAPVPQDMELVTMSSQAQDRFTDYLIETLDPKAGQHLLDIGCGTGRPALKAARQRGIAVTGVAVSKEQIAAANRLAAGNGLTERLTFEVADAMRLPYEDESFDCAWAIESLDHMDRAKALGEAWRVLKPGGDLLVAEEVVTEELTEPETALFETLFALNVPPRLGEFFDIVSGAGFHTLSLKDLSADLAMTMNVFALGVYSRRAEFTERFGAEFVDGLLAGLGSAQETVIRKTRFFMATLRKPAV
modifications: Modified from pMT1
B15: E190A (protein)
chain: MPQEARTPQQQVTADEVGDWYDKFGEVYHLTLGESVHCGLWFPPDAPVPQDMELVTMSSQAQDRFTDYLIETLDPKAGQHLLDIGCGTGRPALKAARQRGIAVTGVAVSKEQIAAANRLAAGHGLTERLTFEVADAMRLPYEDESFDCAWAIESLDHMDRAKALGEAWRVLKPGGDLLVAEEVVTEELTAPETALFETLFALNVPPRLGEFFDIVSGAGFHTLSLKDLSADLAMTMNVFALGVYSRRAEFTERFGAEFVDGLLAGLGSAQETVIRKTRFFMATLRKPAV
modifications: Modified from pMT1

Experiments:
[1] = In-vivo cis-α-irone production screening of pMT7 and pMT12 mutants; type: cell-based, Escherichia coli; conditions: mutations made to pMT12; normalized to pMT12 (=1)
Summary of the method: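 E. coli BL21(DE3) ΔaroA ΔaroB ΔaroC ΔserC strains, with or without ΔmetJ, carried the plasmids and were grown in 1 ml auto-inducing defined medium (glucose/glycerol, 30 mM lactose) at 28 °C for 3 days. Products were extracted into hexane and measured by GC-MS. Production is a semi-quantitative fold change relative to pMT12.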

[2] = Cell lysate reaction of pMT enzymes with psi-ionone, irones quantified by HS-SPME-GCMS; type: biochemical; conditions: for in-vitro production of cis-α-irone (in words): single mutations vs parent (pMT7 or pMT12)
Summary of the method: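 pMT1 site-saturation mutants were expressed in E. coli BL21(DE3) and lysed, and lysates were incubated 2 days at 28 °C with 0.2 mM SAM and 10 mg/L psi-ionone (plus caryophyllene) in 50 mM Tris pH 7, 10 mM MgCl2. Cis-α-irone was measured by HS-SPME-GCMS peak area and given as fold change over non-mutated enzyme.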

Molecule	Fold change in in-vivo cis-α-irone production [1]	irone production / methyltransferase activity towards psi-ionone (in words) ([2]; cell lysate reaction, vs parent or control)	in-vitro production of cis-α-irone (in words) [2]
B1	1	maintained the percentage of cis-α-irone produced while further improving the absolute amount produced	
B2	0.92		
B3	0.92		
B4	0.90		
B5	0.95		
B6	1.11		moderate increase
B7	0.92		
B8	1.14		
B9	1.17		
B10	1.26		moderate increase
B11	0.95		moderate increase
B12	1.07		
B13	0.88		
B14	0.91		
B15	1.12		
